Results taken from patent US20210332123A1 (SUZHOU KANOVA BIOPHARMACEUTICAL, published 2021).

Key:
human IL-17B = biological target: T1, human IL-17B (human, UniProt Q9UHF5 21-180); experiment: ELISA (FIG. 4)
T1 sequence (looked up): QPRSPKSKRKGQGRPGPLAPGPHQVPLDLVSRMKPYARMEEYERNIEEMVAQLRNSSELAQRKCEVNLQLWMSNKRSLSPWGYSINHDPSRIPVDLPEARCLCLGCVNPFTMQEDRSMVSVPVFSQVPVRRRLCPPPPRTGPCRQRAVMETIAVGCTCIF
Procedure: (§1) MaxiSorp 96-well plates (NUNC #449824, www.thermofisher.com) were coated with 2 μg/ml human IL-17A (Cell Signaling #89285F, www.cellsignal.com), human IL-17F (Cell Signaling #8906LC, www.cellsignal.com), human IL-17B (Peprotech #200-28, www.peprotech.com), human IL-17C (R&D systems #1234-IL-025/CF, www.rndsystems.com), human IL-17D ((Peprotech #200-27, www.peprotech.com), human IL-17E (R&D systems #1258-IL-025/CF, www.rndsystems.com) in 1×PBS (50 μl/well) respectively. Plates were incubated at 4° C. overnight. Coating solution was removed and plates were washed once with 200 μl/well PBST (1×PBS with 0.05% tween-20). Then 200 μl/well blocking buffer (1×PBS with 0.05% tween-20, 3% BSA) was added and incubated at room temperature for 1 hour. Blocking buffer was removed and plates were washed three times with 200 μl/well PBST (1×PBS with 0.05% tween-20). The anti-IL-25 antibodies (produced in Example 2), were diluted to 10, 3.33, 1.11, 0.37, 0.123, 0.041, 0.0137, 0.0046, 0.0015, 0.00031, 0.000102, 0.000034 μg/ml by 1×PBS and added to the plates (50 μl/well). Plates were incubated at room temperature for 2 hours. Antibodies in the wells were removed and plates were washed three times with 200 μl/well PBST (1×PBS with 0.05% tween-20) each time. Goat anti-human IgG(H&L)-HRP secondary antibody (Jackson Immuno Research #109-035-088, www.jacksonimmuno.com) was diluted 1:5000 in 1×PBS and added to each well (50 μl/well). Plates were incubated at room temperature for 1 hour. Secondary antibody was removed and plates were washed seven times with 200 μl/well PBST (1×PBS with 0.05% tween-20) each time. 50 μl/well TMB (eBioscience #85-00-4201-56, www.ebioscience.com) was added and plates were incubated at room temperature for several minutes. Then 50 μl/well 2N H₂SO₄ was added to stop the reaction. Plates were read at 450 nm.

human IL-17C = biological target: T2, human IL-17C (human, UniProt Q9P0M4 19-197); experiment: ELISA (FIG. 4)
T2 sequence (looked up): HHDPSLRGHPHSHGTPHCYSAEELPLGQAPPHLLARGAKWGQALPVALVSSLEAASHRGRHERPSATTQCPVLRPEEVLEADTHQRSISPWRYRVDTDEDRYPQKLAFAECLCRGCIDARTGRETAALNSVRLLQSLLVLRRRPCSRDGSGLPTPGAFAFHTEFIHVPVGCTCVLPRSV
Procedure: as §1

B1: murine anti-IL-25 monoclonal antibody 18H3 (antibody, V domains shown)
VH: QVTLKESGPGILQPSQTLSLTCSFSGFSLSTSGMGLGWIRQPSGKGLEWLAHIWWDDVKHYKPALKSRLTISKDISSSQVFLTIASVDTADTATYYCARMGQLHYYGYDYAMDYWGQGTSVTVSS
VL: QIVLTQSPAIMSASPGEKVTISCSASSSVSYMYWYQQKPGSSPKPWIYRTSNLASGVPARFSGSGSGTSYSLTISSMEAEDAATYYCQLYHSYPPTWTFGGGTKLEIK
notes: also called parental antibody; parental murine mAb
binding result (human IL-17B): no binding | binding result (human IL-17C): no binding
